Assay results from US20240092922A1 (EUCURE BEIJING BIOPHARMA, published 2024).
Values belong to the binder of their own block, whether it stands above or below them.

Columns and labels:
[1] = biological target: T1, human 4-1BB (h4-1BB) on transiently transfected CHO cells (human, UniProt Q07011 24-255); assay: flow cytometry, CHO cells transfected with human 4-1BB, antibody at 0.001 µg/ml
T1 construct: also called TNFRSF9; CD137
Experimental: (§1) 25 μl CHO cells transiently transfected with human 4-1BB were added to each well in a plate. The purified antibodies were titrated to final concentrations of 10, 1, 0.1, 0.01, 0.001 μg/ml. The titrated antibodies were added to each well at 4° C. and incubated for 30 minutes.
(§2) After being washed with phosphate-buffered saline (PBS) (1200 rpm, 5 minutes) twice, 50 μl of FITC labeled anti-mouse IgG Fc antibody (anti-mIgG Fc-FITC) at 1:100 dilution was added into each well, and incubated for 30 minutes at 4° C., followed by PBS wash (1200 rpm, 5 minutes). The signal for FITC was detected by flow cytometry.

[2] = biological target: T1, human 4-1BB (h4-1BB) on transiently …; assay: flow cytometry, CHO cells transfected with human 4-1BB, antibody at 1 µg/ml
Experimental: as §1, §2

[3] = biological target: T1, human 4-1BB (h4-1BB) on transiently …; assay: flow cytometry, CHO cells transfected with human 4-1BB, antibody at 10 µg/ml
Experimental: as §1, §2

[4] = biological target: T1, human 4-1BB (h4-1BB) on transiently …; assay: flow cytometry, CHO cells transfected with human 4-1BB, antibody at 0.1 µg/ml
Experimental: as §1, §2

[5] = biological target: T1, human 4-1BB (h4-1BB) on transiently …; assay: flow cytometry, CHO cells transfected with human 4-1BB, antibody at 0.01 µg/ml
Experimental: as §1, §2

[6] = biological target: T2, mouse 4-1BB (m4-1BB) on transfected CHO cells (mouse, UniProt P20334 24-256); assay: flow cytometry on CHO-m4-1BB cells, anti-mouse-IgG-Fc-FITC (1:100)
T2 construct: also called CHO-m4-1BB
Experimental: (§3) 25 μl CHO cells were added to each well. 25 μl purified anti-h4-1BB antibodies (1 μg/ml) were added to each well and were incubated at 4° C. for 30 minutes.
(§4) After being washed with PBS (1200 rmp, 5 min) twice, 50 μl of FITC labeled anti-mouse IgG Fc antibody (anti-mIgG Fc-FITC) was added into each well at 1:100 dilution, followed by incubating at 4° C. for 30 minutes, and then PBS wash (1200 rmp, 5 min). In some cases, PE labeled anti-mouse IgG Fc antibody (anti-mIgG Fc-PE) was used to label the antibody instead, and was added into each tested well at 1:500 dilution. The signals for FITC and PE were determined by flow cytometry.

[7] = biological target: T2, mouse 4-1BB (m4-1BB) on transfected CHO …; assay: flow cytometry on CHO cells transfected with mouse 4-1BB
Experimental: as §3, §4

[8] = biological target: T3, monkey (Rhesus macaque) 4-1BB (r4-1BB) on transfected CHO cells (monkey (Rhesus macaque), UniProt Q07011 24-255 (human entry)); assay: flow cytometry on transfected CHO cells;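 also: antibodies tested at 1 µg/ml on CHO cells for 30 min at 4 °C, binding detected with FITC- or PE-labeled anti-mouse IgG Fc secondary by flow cytometry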
T3 construct: also called rm4-1BB; CHO-r4-1BB
T3 chain: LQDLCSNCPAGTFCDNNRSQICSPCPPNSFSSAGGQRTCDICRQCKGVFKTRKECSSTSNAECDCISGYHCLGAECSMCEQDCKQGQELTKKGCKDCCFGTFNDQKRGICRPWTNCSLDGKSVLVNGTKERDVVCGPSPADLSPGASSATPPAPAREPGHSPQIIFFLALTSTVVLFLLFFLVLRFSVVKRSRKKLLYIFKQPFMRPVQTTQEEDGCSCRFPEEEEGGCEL
Experimental: as §3, §4

[9] = biological target: T4, chimeric (mouse and human) 4-1BB (c4-1BB) on transfected CHO cells (chimeric (mouse and human)); assay: flow cytometry on transfected CHO cells;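 also: antibodies tested at 1 µg/ml on CHO cells for 30 min at 4 °C, binding detected with FITC- or PE-labeled anti-mouse IgG Fc secondary by flow cytometry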
T4 construct: also called chi4-1BB; CHO-c4-1BB
Experimental: as §3, §4

B1: 30-5F9 (antibody, V domains shown)
VH: QVQLKESGPGLVAPSQSLSITCTVSGFSLTTYDISWVRQPPGKGLEWLGVIWTGGGTNYNSSFMSRLSISKDNSKNQVFLKMNSLQVDDTAIYYCERVDYWGQGTTLTVSS
VL: DVVMTQTPLSLPVSLGDQASISCRSSQSLVHSNGNTYLHWYLQKPGQSPKLLIYKVSNRFSGVPDRFSGSGSGTAFTFKISRVEAEDLGVYFCSQNTHVPWTFGGGTKLEIK
notes: mouse antibody purified from ascites
percentage of cells with FITC signal [1]: 0.802%
percentage of cells with FITC signal [2]: 56.2%
percentage of cells with FITC signal [3]: 68.9%
percentage of cells with FITC signal [4]: 25.3%
percentage of cells with FITC signal [5]: 0.72%
binding result [6]: no binding (tested: 1 µg/ml)

B2: 45-8E2 (antibody, V domains shown)
VH: EVKLLESGGGLVQPGGSLKLSCAASGFDFSRYWMSWVRQAPGKGLEWIGEIHPDSSAINYTPSLKDKFIISRDNAKNTLYLQMSKVRSEDTALYYCARSYYGRVFDYWGQGTTLTVSS
VL: DIVMTQSPATLSVTPGDRVSLSCRASQSISDYLHWYQQKSHESPRLLIKYASQSISGIPPRFSGSGSGSDFTLSINSVEPEDVGMYYCQDGHSFPPTFGAGTKLELK
notes: as for B1
percentage of cells with FITC signal [1]: 1.52%
percentage of cells with FITC signal [2]: 60.1%
binding result [7]: no binding (tested: 1 µg/ml)
percentage of cells with FITC signal [3]: 58.9%
percentage of cells with FITC signal [4]: 49.8%
percentage of cells with FITC signal [5]: 9.06%
binding result [8]: binds
binding result [9]: binds

B4: 55-8F6 (antibody, V domains shown)
VH: QVQLQQPGAELVRPGASVKLSCKASGYIFTSYWINWVKQRPGQGLEWIGNIYPSDSYTNYNQKFKDKATLTVDKSSSTAYMQLSSPTSEDSAVYYCTRFHYGSSPFDNWGQGTTLTVSS
VL: DIQMTQSTSSLSASLGDRVTISCRASQDISHYLNWYQQKPDGTVKLLIYYTSRLHSGVPSRFSGSGSGTDYSLTISNLEQEDFATYFCQQGHTLPRTFGGGTKLEIK
notes: as for B1
percentage of cells with FITC signal [1]: 0.375%
percentage of cells with FITC signal [2]: 52.3%
binding result [7]: no binding (tested: 1 µg/ml)
percentage of cells with FITC signal [3]: 53.6%
percentage of cells with FITC signal [4]: 36.1%
percentage of cells with FITC signal [5]: 0.571%
binding result [8]: binds
binding result [9]: binds

B5: 16-1C4 (antibody, V domains shown)
VH: QGQMQQSGAELVKPGASVKLSCKTSGFTFSSSYINWLKQKPGQSLEWIAWIFAGTGGTYYNQKFTGKAQLTVDTSSGTAYMQFSSLTTEDSAIYYCARHSPRATLFDFWGQGTTLTVSS
VL: QIVLSQSPAILSASPGEKVTMTCRASSSVNHMHWYQQRTGFSPKAWIYATSNLASGVPARFSGSGSGTSYSLTISRVEAEDAATYYCQQWSSNPYTFGGGTKLEIK
notes: as for B1
percentage of cells with FITC signal [1]: 0.316%
percentage of cells with FITC signal [2]: 69%
percentage of cells with FITC signal [3]: 69.1%
percentage of cells with FITC signal [4]: 49.7%
percentage of cells with FITC signal [5]: 6.61%
binding result [6]: no binding (tested: 1 µg/ml)

B6: 54-8B11 (antibody, V domains shown)
VH: QIQLVQSGPELKKPGETVKISCKASKFTFTNYGMNWVKQAPGKALKWMGWINTYTGEPTYADDFKGRFDFSLETSATTAYLQINNLKNEDTATYFCARREYYPWVFVYWGQGTLVTVSA
VL: ENVLTQSPAIMSASPGEKVTMTCSASSSVSYMHWYQQKSSTSPKLWIYDTSKLASGVPGRFSGSGSGNSYSLTISSMEAEDVATYYCFQGSGYPLTFGGGTKLEIK
notes: as for B1
percentage of cells with FITC signal [1]: 0.111%
percentage of cells with FITC signal [2]: 45%
binding result [7]: no binding (tested: 1 µg/ml)
percentage of cells with FITC signal [3]: 49.8%
percentage of cells with FITC signal [4]: 16.5%
percentage of cells with FITC signal [5]: 0.445%
binding result [8]: binds
binding result [9]: binds

B8: 45-7E9 (antibody, V domains shown)
VH: QVQLKQSGPGLVQPSQSLSITCTVSGFSLTTYGVHWVRQPPGKGLEWLGVIWSDGNTDYNDAFISRLSITKDNSTSQVFFKMNGLQADDTAIYYCARNSITSVSFDCWGQGTTLTVSS
VL: DIVMTQSQKFMSTSVGDRVSVTCKASQNVGTTVAWYQQRPGQSPKALICSASYRYSGVPDRFTGSGSGTDFTLTISNVQSEDLAEYFCQQYNSYPLTFGSGTKLEIK
notes: as for B1
percentage of cells with FITC signal [1]: 0.703%
percentage of cells with FITC signal [2]: 58.4%
binding result [7]: no binding (tested: 1 µg/ml)
percentage of cells with FITC signal [3]: 57.6%
percentage of cells with FITC signal [4]: 50%
percentage of cells with FITC signal [5]: 12.7%
binding result [8]: binds
binding result [9]: binds

B10: 45-7G9 (antibody, V domains shown)
VH: QVQLQQPGSALVRPGASVKLSCKASGYTFSNYWIHWVKQRHGQGLEWIGNIYPASDYTNYDEKFKNKGTLTVDTSSSTAYMHLSSLTSEDSAVYYCSRGYFGSLDYWGQGTSVTVSA
VL: DILLTQSPAILSVNPGERVSFSCRASQPIGTGIHWYQQRTNGSPRLLIKSASESISGIPSRFSGSGSGTDFTLTINNVESDDVGDYYCQQSYSWPTTFGGGTKLKIN
notes: as for B1
percentage of cells with FITC signal [1]: 1%
percentage of cells with FITC signal [2]: 55.1%
binding result [7]: no binding (tested: 1 µg/ml)
percentage of cells with FITC signal [3]: 57.9%
percentage of cells with FITC signal [4]: 25.9%
percentage of cells with FITC signal [5]: 0.96%
binding result [8]: binds
binding result [9]: binds

Further lines, results first:

percentage of cells with FITC signal [1]: 1.25%
percentage of cells with FITC signal [2]: 56.4%
binding result [7]: no binding (tested: 1 µg/ml)
percentage of cells with FITC signal [3]: 56.7%
percentage of cells with FITC signal [4]: 9.06%
percentage of cells with FITC signal [5]: 3.37%
binding result [8]: binds
binding result [9]: binds
B3: 70-3F9 (antibody, V domains shown)
VH: QVQLQQPGAELVRPGASVKLSCKASGYTFTSYWINWVKQRPGQGLEWIGNIFPSDSYTNYNQKFKDRAKLTVDKSSSTAYMQLSSPTSEDSAVYYCTRFGSSGYPDYYTMEYWGQGTSVTVSS
VL: DIQMTQSPASLSASVGETVTITCRASGNIDNYLAWYQQKQGKSPQLLVYNAKTLAEGVPSRFSGSGSGTEYSLKINSLQPEDFGSYHCQQYWTIPYTFGGGTKLEIK
notes: as for B1

percentage of cells with FITC signal [1]: 0.183%
percentage of cells with FITC signal [2]: 62.9%
binding result [7]: no binding (tested: 1 µg/ml)
percentage of cells with FITC signal [3]: 58.5%
percentage of cells with FITC signal [4]: 52.3%
percentage of cells with FITC signal [5]: 26.2%
binding result [8]: binds
binding result [9]: binds
B7: 69-3C2 (antibody, V domains shown)
VH: DVQLVESGGGLVQPGGSRKLSCAASGFSFSSFGMHWMRQAPEKGLEWVAYISSGSSAIYYADTVKGRFTISRDNPKNTLFLQMTSLRSEDTAMYYCARDWVDYWGQGTTLTVSS
VL: DIQMTQSPASLSVSVGETVTITCRASENIYSNLVWYQQKQGKSPQLLVYTATKLTNGVPSRFSGSGSGTQYSLKINSLQSEDFGTYYCQHFWDTPYTFGGGTKLEMK
notes: as for B1

percentage of cells with FITC signal [1]: 3.43%
percentage of cells with FITC signal [2]: 60.1%
binding result [7]: no binding (tested: 1 µg/ml)
percentage of cells with FITC signal [3]: 63%
percentage of cells with FITC signal [4]: 51.1%
percentage of cells with FITC signal [5]: 17%
binding result [8]: binds
binding result [9]: binds
B9: 61-6A7 (antibody, V domains shown)
VH: EVQLQQSGAELVRPGALVKLSCKASGFNIKDYYMHWVKRRPEQGLEWIGWIDPENGNTIYDPKFQDKASITADTSSNTAYLQLSSLTSEDTAVYYCAEGLPWYFDYWGQGTTLTVSS
VL: QIILTQSPALMSASPGEKVTMTCSASSSVSDMNWYQQKPRSSPTPWIYLTSNLSSGVPDRFSGSGSGTSYSLTISSMEAEDAATYYCQQWSGNPLTFGAGTRLELK
notes: as for B1

percentage of cells with FITC signal [1]: 0.962%
percentage of cells with FITC signal [2]: 23.7%
binding result [7]: no binding (tested: 1 µg/ml)
percentage of cells with FITC signal [3]: 52.9%
percentage of cells with FITC signal [4]: 1.14%
percentage of cells with FITC signal [5]: 0.913%
binding result [8]: binds
binding result [9]: binds
B11: 70-6F10 (antibody, V domains shown)
VH: QVQLQQSGPELVKPGASVKISCKASGYAFNNSWMNWVKQRPGQGLEWIGRIYPGDGDTDYNGKFKGKATLTADKSSSTAYMQLSSLTSVDSAVYFCARLDGNYYYWYFDVWGAGTTVTVSS
VL: not shown
notes: as for B1
